Patent US10544215B2, “1-(Chloromethyl)-2,3-dihydro-1H-benzo[e]indole dimer antibody-drug conjugate compounds, and methods of use and treatment” (priority 2013, dated 2020)

B1: ADC 125: Thio Hu Anti-CD33 15G15.33 HC A118C-MC-MMED-(CBI dimer phos); linker-CBI intermediate 57 (conjugate)
VH: QVQLVQSGAEVKKPGSSVKVSCKASGGIFSNHAISWVRQAPGQGLEWMGGIIPIFGTANYAQKFQGRVTITADESTSTAFMELSSLRSEDTAVYYCAREWADVFDIWGQGTMVTVSS
VL: EIVLTQSPLSLPVTPGEPASISCRSSQSLLHSNGYNYLDWYLQKPGQSPQLLIYLGVNSVSGVPDRFSGSGSGTDFTLKISRVEAEDVGVYYCMQALQTPWTFGQGTKVEIK
B2: ADC 127: Thio Hu Anti-CD33 15G15.33 HC A118C-MC-ED-(CBI dimer DVB diphos); linker-CBI intermediate 66 (conjugate)
VH: B1 VH
VL: B1 VL
B3: ADC 129: Thio Hu Anti-CD33 15G15.33 HC A118C-MC-ED-(CBI dimer DVB phos); linker-CBI intermediate 68 (conjugate)
VH: B1 VH
VL: B1 VL

System: EOL-1
Assay: EOL-1 in vitro cell viability (CellTiter-Glo cell proliferation assay)
Assay type: cell-based, human
Conditions: at 3 days versus ADC concentrations (μg/ml)
Excerpt: The CellTiter-Glo® Luminescent Cell Viability Assay is a commercially available (Promega Corp., Madison, Wis.), homogeneous assay method based on the recombinant expression of Coleoptera luciferase (U.S. Pat. Nos. 5,583,024; 5,674,713; 5,700,670). This cell proliferation assay determines the number of viable cells in culture based on quantitation of the ATP present, an indicator of metabolically active cells (Crouch et al (1993) J. Immunol. Meth. 160:81-88; U.S. Pat. No. 6,602,677). The CellTiter-Glo® Assay was conducted in 96 well format, making it amenable to automated high-throughput screening (HTS) (Cree et al (1995) AntiCancer Drugs 6:398-404). The homogeneous assay procedure involves adding the single reagent (CellTiter-Glo® Reagent) directly to cells cultured in serum-supplemented medium. Cell washing, removal of medium and multiple pipetting steps are not required. The system detects as few as 15 cells/well in a 384-well format in 10 minutes after adding reagent and mixing. The cells may be treated continuously with ADC, or they may be treated and separated from ADC.
The homogeneous “add-mix-measure” format results in cell lysis and generation of a luminescent signal proportional to the amount of ATP present. The amount of ATP is directly proportional to the number of cells present in culture. […] Viable cells are reflected in relative luminescence units (RLU). […]
Efficacy of ADC was measured by a cell proliferation assay employing the following protocol ([…] GLO™ Luminescent Cell Viability Assay, Promega Corp. Technical Bulletin TB288; Mendoza et al (2002) Cancer Res. 62:5485-5488): • 1. […] The plate was incubated at room temperature for 10 minutes to stabilize the luminescence signal. • 8. Luminescence was recorded and reported in graphs as RLU=relative luminescence units. • Data are plotted as the mean of luminescence for each set of replicates, with standard deviation error bars. […]

Molecule	cell-killing activity (EOL-1 in vitro cell viability)
B1	modest dose response cell-killing activity
B2	potent, dose responsive cell-killing activity
B3	potent, dose responsive cell-killing activity
